In US20110105733A1 (Ablynx, published 2011):

Target: T1, rat Jagged-1 (rrJagged-1, R&D Systems Cat #599-JG) (rat, UniProt Q63722 34-1067)
T1 construct: extracellular domain; Bought reagent; also called non-biotinylated Jagged-1; cold-jagged1
Test: ELISA: rat Jagged-1 (rrJagged-1) coated at 2 ug/mL, Nanobody series, detection by mouse anti-Myc tag and DAMPO, OD 490 nm
Procedure: Two rounds of phage display selection were performed similarly as described above. Binding assays were performed. In short: Maxisorp plate was coated with 100 ul 2 ug/ml of rrJagged-1 (R&D systems) in PBS O/N at 4 C. After washing the plate 4× with PBS the plate was blocked with 4% Marvel in PBS for 30 minutes on shaker. A concentration series of Nanobody (1-1000 nM) was added in 100 ul 2% Marvell/PBS and incubate for 1 hour on shaker. After washing the plate 4× with PBS the Nanobodies were detected with 100 ul 1:5000 Mouse-anti-MycTag in 2% Marvell/PBS for 1 hour and 100 ul 1:5000 DAMPO in 2% Marvell/PBS for 1 hour. After washing the DAMPO was detected with 100 ul OPD, stopped with 50 ul H2SO4 and quantification was performed at 490 nm in a plate reader.

binding result: binds
B1: 178D9 (VHH)
VHH: EVQLVKSGGGLVQPGGSLRLSCAASGSIVSANLIGWYRQAPGKQREGVAFITSGGAINYADSVKGRFTISRDDAKNTVYLQMNSLKPEDTAIYYCNLRQLGNVYWAQGTQVTVSS
notes: Nanobody against rat Jagged-1; not shown: C-terminal c-myc tag and His6 tag coded by vector pAX50
